Source: the supplement of paper PMC9170038

System: MS2 coat protein
Assay: apparent KD of MS2 coat protein; designed switch direction (-1 OFF switch, 1 ON switch): 1; higher = weaker reporter binding
Outline: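 Designed RNA switches were transcribed on Illumina chips by stalled E. coli RNA polymerase and titrated with SNAP-549-labelled MS2 coat protein from 0.7 or 1.5 nM, doubling to 3 µM. Step length ran from 0.8–1.5 h at the lowest concentration to 10–20 min at the highest. The apparent KD is the median over clusters for each design, from curve-fitted normalised cluster fluorescence.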

[1] = input ligand: microRNA oligo, concentration not stated
[2] = Eterna round: R95, input ligand: FMN 200 uM
[3] = Eterna round: R95, input ligand: microRNA oligo, concentration not stated
[4] = Eterna round: R95, input ligand: none

Sequence | apparent KD of MS2 coat protein (input ligand: FMN 200 uM) [nM] | apparent KD of MS2 coat protein [1] [nM] | apparent KD of MS2 coat protein (input ligand: none) [nM] | apparent KD of MS2 coat protein [2] [nM] | apparent KD of MS2 coat protein [3] [nM] | apparent KD of MS2 coat protein [4] [nM]
CAUCGUUUGAUAGGAUAUCGCUAUACAUGAGGAUCACCCAUGUUUACCACGCUGGUUUUUCAUACCGAGAAGGAUUCUGAUGAU [salish99_SSNG02_r04_013] (Eterna round: R96, puzzle: Same State NG 2) | 29.6 | 27.8 | 32.5 |  |  | 
ACAUGAGAGAUAGGAUAUUUUGUACCUACAUGUGACAUGAGGAUCACCCAUGUGGUAAGUAUGAGAAAGAAGGAUCAGAUAUGU [Equivalance 52 - Jieux - Same State NG 2] (Eterna round: R96, puzzle: Same State NG 2) | 26.3 | 63.7 | 79.8 |  |  | 
UUAAAACAUGAGGAUCACCCAUGUCAUCUAAGUCGAGGAUAUGGGCAUAUAAUAUAAGAACCAGAAGGCGAAUAUU [Mat - Same State 1 - Mod of UCT - D26] (puzzle: Same State 1) |  |  |  | 113 | 37.7 | 58.4
AGCUAGUACCGAGGAUAUACAUACAUGAGGAUCACCCAUGUAUACAUGAAUUAUUGAGACUACAUGUAGAAGGCGGUACUAGCA [JL SSNG2 1.20] (Eterna round: R96, puzzle: Same State NG 2) | 16.6 | 35.7 | 64.9 |  |  | 
UAUUUAAUCAUAGGAUAUAGUGUGAAAUUUGGACUAGAAGGAUGUAACAUGAGGAUCACCCAUGUGGUAAGUGGGACACAGUGU [JR_SSNG1_Sub095] (Eterna round: R96, puzzle: Same State NG 1) | 164 | 69.4 | 141 |  |  | 
GUACUACAUGAGGAUCACCCAUGUACAAAAGUACGAGGAUAUGCAUGGACGAAAGUUGGUGCAGAAGGCGUAGUAC [Pin2Pin #3] (puzzle: Same State 1) |  |  |  | 20.2 | 25.9 | 24
UUUGCAUGACGAGGAUAUCAUUUAUUUCUUGAUUGAGAAGGCGUUCUUUUUAUUACCUAACAUGAGGAUCACCCAUGUGACAGU [JR_SSNG1_Sub046] (Eterna round: R96, puzzle: Same State NG 1) | 13.2 | 10.3 | 16.7 |  |  | 
UUAAGCAACGGGCAGGAUAUGUAUUAAAAUACAUGAGGAUCACCCAUGUGCAGGUGUAACACCUGACAGAAGGGCCAAUCGGUGC [Soteed - 8] (puzzle: Same State 2) |  |  |  | 39.5 | 256 | 409
UACAAUCUAUCUGAGGAUAUCAUGAAUAAAACAUGAGGAUCACCCAUGUGCAGGAAAACUGCAUAUGAGAAGGCAGAUAGAUUGU [salish99_ss2_r3_067] (puzzle: Same State 2) |  |  |  | 45.9 | 181 | 556
UUAACAUGAGGAUCACCCAUGUAUAGGGAGUUUGCAAUUUGACAGGAUAUUGAAGAUGUAGAUAGCAAGAAGGGUCGGUAGUCU [JR_SSNG3_Sub004] (Eterna round: R96, puzzle: Same State NG 3) | 46.1 | 32.4 | 43.9 |  |  | 
GGUAGGUUACUACCAAACAUGAGGAUCACCCAUGUAAGUGGGAAGGAUAUGGUACCGAAACGGUACCAGAAGGUCCAUAUAGUA [Mat - Same State NG 3 - JL Mod - D100] (Eterna round: R96, puzzle: Same State NG 3) | 324 | 564 | 1100 |  |  | 
GCUCGACGUAUUGUCUACAUGAGGAUCACCCAUGUAGGUGCGGAGGAUAUCUACGUGUUUCAUGUAGAGAAGGUCGUGUCGAGC [SameState NG3 #90] (Eterna round: R96, puzzle: Same State NG 3) | 56 | 155 | 177 |  |  | 
UGUCCAGCCUGAGCUGGACAAAAGCAUGUACAUGAGGAUCACCCAUGUUCAUGUACAAGCUUUUUGCUCGUCUUAUG [salish99_208a_r3_052] (puzzle: Sensor for hsa-mir-208a) |  |  |  | 517 | 16.4 | 655
GCCGCAGGCUAAGGAUAUUGCGUGAUCACAUGAGGAUCACCCAUGUCAAUAUCGCUACGGAAGAGCAAGAAGGUAGCGCCGCAG [Eternabot solution 10] (Eterna round: R96, puzzle: Same State NG 2) | 188 | 182 | 127 |  |  | 
AUUAAACAUGAGGAUCACCCAUGUCAACAAAGUCGAGGAUAUGGGCAAAUAAUAUAAUAACCAGAAGGCGAAUAAU [salish99_ss1_r3_081] (puzzle: Same State 1) |  |  |  | 36.7 | 28.1 | 97
CUGAGAUGUCAAGGAUAUCACGUCGAUUAGACGUGAGAAGGUGAUCUGUACAUGAGGAUCACCCAUGUGUUACAUGGAACUCAG [Brourd's SSNG1/1-A2 mod 10] (Eterna round: R96, puzzle: Same State NG 1) | 184 | 30.9 | 53.9 |  |  | 
AUAAUAAUAACUGAGGAUAUGUUGAUAAAGACAUGAGGAUCACCCAUGUGAAAUAAAAUAAUAAUACAGAAGGCAGAAUAAUAAA [JMF's solution 1] (puzzle: Same State 2) |  |  |  | 23 | 29.7 | 25.7
UGGUACAUGGGAGGAUAUCCUCAUGAGACAUGAGGAUCACCCAUGUAUUAUAAGCCGAAAGGCAUGGAGAAGGCCCAUGUACCU [JL SSNG1 3.83] (Eterna round: R96, puzzle: Same State NG 2) | 25 | 269 | 455 |  |  | 
GGAGCCGGCACGGAGGAUAUUCAUAUUAAAACAUGAGGAUCACCCAUGUAGGCCAGAAGGCCUUGGGAGAAGGCCGAUCGGCUCG [Xeonanis - 15] (Eterna round: R96, puzzle: Same State 2) | 21.2 | 258 | 333 |  |  | 
UGUCCAGCCUGAGCUGGACAAAAGCAUGUACAUGAGGAUCACCCAUGUUCAUGUACAAGCUUUUUGCUCGUCUUACG [salish99_208a_r3_082] (puzzle: Sensor for hsa-mir-208a) |  |  |  | 763 | 15 | 690
AUAAAUAAACAUGAGGAUCACCCAUGUGUUAUAUAAGCAAAUAAAUAAAUAAAUAAAUAAAUAAAUAAAUAAAUAAA [RNA Sequence] (puzzle: Sensor for hsa-mir-208a version 2) |  |  |  | 25.5 | 26.1 | 29.2
GUUACAUGAGGAUCACCCAUGUAUGUGUGGGAGUAAGUGUCUUAGGAUAUCUGUUAUUUAAUUUCAGAGAAGGAAGAUUGUUGU [JMF's solution 48] (Eterna round: R96, puzzle: Same State NG 3) | 125 | 91.2 | 105 |  |  | 
UCAAUCAUGUAAGGAUAUGCAGCCGUUUCGGCUGCAGAAGGUACUAUAAUUACAUGAGGAUCACCCAUGUUAUAAAAUUUAUAU [JL SSNG1 1.26] (Eterna round: R96, puzzle: Same State NG 1) | 33.6 | 101 | 217 |  |  | 
GGAAACAACACAGGAUAUCCAGAUGAUGAUGAAGGAGAAGGGUGUGCCCACAUGAGGAUCACCCAUGUUACAACGAAUAGAUAA [racquet 1] (Eterna round: R96, puzzle: Same State NG 1) | 457 | 666 | 1240 |  |  | 
ACAUGAAAGGCAGGAUAUUUUGUACCUACAUGUGACAUGAGGAUCACCCAUGUGGUAAGUAUAAGAGAGAAGGGUCAGAUAUGU [Equivalence 2 - Jieux - Same State NG 2] (Eterna round: R96, puzzle: Same State NG 2) | 28.9 | 31.7 | 37.2 |  |  | 
UGCAGCUACGUAGGAUAUCCGAAAGGAAGUGUAGGAGAAGGACGAGAGCCGCCUUACGUACAUGAGGAUCACCCAUGUAGUAGG [PowerStrip SSNG 1.22] (Eterna round: R96, puzzle: Same State NG 1) | 13.7 | 21.8 | 25.9 |  |  | 
AACAAACGCGGAGGAUAUGGGCGAGGCGCGGAAGUCCACGCCAAAACAUGAGGAUCACCCAUGUCCCAGAAGGCCGCACAAAAU [Gererier] (Eterna round: R96, puzzle: Same State NG 2) | 16.3 | 40.8 | 49.1 |  |  | 
AUUAAACAUGAGGAUCACCCAUGUCAACAAAGUCGAGGAUAUGGGCAUAUUAUCUUAUUACCAGAAGGCGAAUAAU [salish99_ss1_r3_087] (puzzle: Same State 1) |  |  |  |  | 326 | 
UGGAUCUAGGCUUGCCUGGGUCCAUGUUGACAUGAGGAUCACCCAUGUGUAUUUUUUUAGCUUUUUGUUUGUCAACU [JL A Humble Attempt mod 10] (puzzle: Sensor for hsa-mir-208a) |  |  |  | 26.2 | 13 | 25.5
UUAAAACAUGAGGAUCACCCAUGUCAACAAAGUCGAGGAUAUGGGCAAAUAAAAUAAGAACCAGAAGGCGAAUAAG [salish99_SS1_r3_005] (puzzle: Same State 1) |  |  |  | 36.9 | 221 | 314
